Reference: the RNAGym collection of RNA variant scans (doi:10.1073/pnas.2313332121)
Fewer inactive variants are shown than the library holds.

B1: TPR 5TU (parent)
chain: GGAUCUUCUCGAUCUAACAAAAAAGACAAAUCUGCCACAAAGCUUGAGAGCAUCUUCGGAUGCAGAGGCGGCAGCCUUCGGUGGCGCGAUAGCGCCAACGUUCUCAACUAUGACACGCAAAACGCGUGCUCCGUUGAAUGGAGUUUAUCAUG

Variants of: B1
Experiment: polymerase ribozyme fitness, log enrichment relative to wild type (log ratio); higher = more active; in vitro selection for triplet polymerase activity
Procedure, shortened: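 Mutant libraries for each subunit of a heterodimeric triplet polymerase ribozyme were made by PCR and then transcribed. Each library underwent one round of in vitro selection in triplicate: annealing with a biotinylated primer, the partner subunit and triplets, frozen incubation at −7 °C, gel excision of extended constructs, streptavidin-bead capture and RT-PCR. Input and output libraries were Illumina-sequenced, and only genotypes with ≥10 input reads and ≥1 read per output were kept. Fitness is the logarithm, base 2, of genotype enrichment over wild-type enrichment, computed from inverse-variance-weighted replicate averages.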

Variant	polymerase ribozyme fitness (log ratio)
C36A G67C G68C A73U C87A U148C	≤ -4.2
C36U U53A A119G	-1.17
C38U A40G	-2.26
C38U G50A	-2.15
C38U C105G G141U	-1.54
C36A C85U A98G C125A	≤ -4.2
C36U A142C	-2.05
C36A C54G U61G C79A G80A U102C	≤ -4.2
C38U G70A	-2.9
C38U A49C A60C U82G G83A	≤ -4.2
A37C A52G U82C C85G C95U C105U A142C A150G	≤ -4.2
A37G C54U	-2.05
C38G C95A A150U	-0.802
A39G A40G A41U G58A G59U U61A C79A U144A G152C	≤ -4.2
C38U A52G G70U C85U G117U	-3.27
C38U G83C C132A	≤ -4.2
A39G A49U U55A U56A A91U	≤ -4.2
C38A C51U C95A C131A	-3.34
C36A G117U U148C	≤ -4.2
C38U C149U A150U	-1.23
C36A C76U	≤ -4.2

Variant	polymerase ribozyme fitness (log ratio)
C38U G59C G81C C95G C116G	-1.71
C38G C85G C105U A121U G124A	-2.25
C36U G62A A91C C96G A113U	≤ -4.2
A39C G81A G94U A106G A110C G140U	-4.04
A39G A41G A73G G86C G92U	≤ -4.2
C36U C85U G124C	-2.46
A37G C123U	-1.8
C36A G84A	-3.37
C35U U61A G86A C125G G141U	≤ -4.2
A37U U44A G86C	≤ -4.2
C36U A91U	≤ -4.2
C36A G84U U102A C103U U127C	≤ -4.2
A39C G48C G88U A97G U144G	≤ -4.2
C38U U55A G59C U135C	-1.98
A39C A142U	-3.34
A37U C72A C95U	≤ -4.2
A37G G81C A142C	-3.82
C38G A98U A122C G141C	-2.06
C38U A66G G92U C108A G136U	≤ -4.2
C38U G42C A52U U61G G133U	≤ -4.2
C36U A107G U151A	≤ -4.2

Variant	polymerase ribozyme fitness (log ratio)
C38U U45A U55C U101G	≤ -4.2
C35U U135G	-3.62
C35U U135A	-0.972
C38U A52G A110C	≤ -4.2
A37U U146G	-2.19
C38U U82A U144A C149G	≤ -4.2
C38U U61G C85A G94C C123A	-1.29
C38U G48A A60C C72G C96A C99U C114G U139G U148G	≤ -4.2
C35U U78A G128A	≤ -4.2
C38A U56A G128U	-3.69
A39C G58C A97U A98C C125U	-3.95
C36U A37U A73G A91U C149U G152U	≤ -4.2
C38U G46U G84A U127G G143C	≤ -4.2
C38U C63G A97U G143C	-3.67
C38G G50C G65U G84A C96U C99U U111G G143A	≤ -4.2
A37C C76A	-3.34
A37U A60G A91G G143C	≤ -4.2
C38U A52C A120U	-1.22
C36G U56A A98G	-3.71
C38U C57A G74U G83C	≤ -4.2
C38U A47U C54A A73G U78A A91U C114A A115U C116U G136C U146G	≤ -4.2

Variant	polymerase ribozyme fitness (log ratio)
C38G C85A G94U C103G	-2.31
A37C G86U A120U U146G	-3.9
C38U U134G	-2.53
A37C A41C C72A C93U C125U	≤ -4.2
C38U A47U A121U U135A A142U	-2.42
A39G A41C	-1.44
A37C C72G C79A	≤ -4.2
C38A G83A	-0.746
A37U G70C C85U G92A	≤ -4.2
C38U A73G C103A	-3.99
A37C A40G C57U A73C C93U	≤ -4.2
C36A C95U C125G U127C	≤ -4.2
A37C C51U G58C C95G C118A	-3.66
C38U C76U C85G C96A C103A C114U C132U	-4.19
C36G C51U C54U C93G	≤ -4.2
C38U U53A	-1.72
C38U G70A C95A C99U A107U	≤ -4.2
C38U U101G U135A	-0.00114
A37G A40U A115G A142U	≤ -4.2
A37U U61A C85U U134A	-3.78
C38A A60U G84A U134C	-1.6
